Experimental data from article PMC9482650, “Quantitative fragmentomics allow affinity mapping of interactomes” (Nature Communications, 2022).
Each block holds one binder with its values, some of them ahead of it.

What was measured:
Test in all cases: holdup assay
Design in all cases: key: below the threshold = too weak to quantify, mostly under pKd 3.1 to 4
Conditions in all cases: plain residues with an end cap or a label only (N-terminal biotin on a linker: ado-ado)
AHNAK1, Q09666 = biological target: AHNAK1, Q09666
Chain of AHNAK1, Q09666 (Q09666 4-100): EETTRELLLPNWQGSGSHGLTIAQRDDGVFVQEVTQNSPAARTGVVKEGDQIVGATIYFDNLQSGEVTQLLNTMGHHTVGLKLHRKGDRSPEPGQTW

CARD11, Q9BXL7 = biological target: T1, CARD11, Q9BXL7
T1 sequence (Q9BXL7 662-765, limits assumed, looked up): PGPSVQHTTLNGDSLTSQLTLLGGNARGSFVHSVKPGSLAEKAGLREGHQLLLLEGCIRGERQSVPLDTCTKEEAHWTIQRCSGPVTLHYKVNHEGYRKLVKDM

DLG1_2, Q12959 = biological target: DLG1_2, Q12959
Chain of DLG1_2, Q12959 (Q12959 314-412): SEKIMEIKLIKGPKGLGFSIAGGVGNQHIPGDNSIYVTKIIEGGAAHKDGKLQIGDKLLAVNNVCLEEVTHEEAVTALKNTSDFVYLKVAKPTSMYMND

DLG3_2, Q92796 = biological target: T2, DLG3_2, Q92796
T2 sequence (Q92796 221-321, limits assumed, looked up): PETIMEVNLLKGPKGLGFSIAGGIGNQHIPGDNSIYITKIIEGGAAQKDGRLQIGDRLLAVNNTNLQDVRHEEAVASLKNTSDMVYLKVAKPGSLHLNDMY

FRMPD1, Q5SYB0 = biological target: T3, FRMPD1, Q5SYB0
T3 sequence (Q5SYB0 52-145, limits assumed, looked up): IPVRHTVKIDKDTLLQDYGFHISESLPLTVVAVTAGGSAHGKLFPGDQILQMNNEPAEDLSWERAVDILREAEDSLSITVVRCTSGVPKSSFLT

FRMPD2_3, Q68DX3 = biological target: FRMPD2_3, Q68DX3
Chain of FRMPD2_3, Q68DX3 (Q68DX3 1073-1166): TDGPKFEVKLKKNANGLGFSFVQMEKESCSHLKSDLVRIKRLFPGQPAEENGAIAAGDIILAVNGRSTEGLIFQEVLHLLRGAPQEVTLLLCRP

GRIP1_4, Q9Y3R0 = biological target: T4, GRIP1_4, Q9Y3R0
T4 sequence (Q9Y3R0 467-571, limits assumed, looked up): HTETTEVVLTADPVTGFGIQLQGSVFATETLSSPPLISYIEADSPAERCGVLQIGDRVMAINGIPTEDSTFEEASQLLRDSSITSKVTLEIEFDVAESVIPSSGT

GRIP2_4, Q9C0E4 = biological target: GRIP2_4, Q9C0E4
Chain of GRIP2_4, Q9C0E4 (Q9C0E4 446-548): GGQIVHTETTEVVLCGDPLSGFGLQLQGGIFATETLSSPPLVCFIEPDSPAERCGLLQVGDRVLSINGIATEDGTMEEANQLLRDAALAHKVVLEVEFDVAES

GRIP2_5, Q9C0E4 = biological target: GRIP2_5, Q9C0E4
Chain of GRIP2_5, Q9C0E4 (Q9C0E4 544-642): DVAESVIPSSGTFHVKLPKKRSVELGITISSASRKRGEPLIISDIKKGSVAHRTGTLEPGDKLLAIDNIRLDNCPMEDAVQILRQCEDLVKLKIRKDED

GRIP2_6, Q9C0E4 = biological target: GRIP2_6, Q9C0E4
Chain of GRIP2_6, Q9C0E4 (Q9C0E4 648-740): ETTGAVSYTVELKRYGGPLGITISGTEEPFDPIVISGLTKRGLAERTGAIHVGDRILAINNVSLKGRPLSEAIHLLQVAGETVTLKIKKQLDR

HTRA1, Q92743 = biological target: HTRA1, Q92743
Chain of HTRA1, Q92743 (Q92743 360-477): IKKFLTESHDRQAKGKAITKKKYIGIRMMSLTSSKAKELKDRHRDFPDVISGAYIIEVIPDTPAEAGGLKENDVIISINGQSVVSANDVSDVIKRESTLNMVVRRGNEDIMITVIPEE

HTRA2, O43464 = biological target: HTRA2, O43464
Chain of HTRA2, O43464 (O43464 355-458): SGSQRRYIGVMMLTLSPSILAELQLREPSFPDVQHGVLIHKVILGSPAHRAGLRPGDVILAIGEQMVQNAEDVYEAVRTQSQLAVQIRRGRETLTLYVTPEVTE

IL16_3, Q14005 = biological target: IL16_3, Q14005
Chain of IL16_3, Q14005 (Q14005 1107-1207): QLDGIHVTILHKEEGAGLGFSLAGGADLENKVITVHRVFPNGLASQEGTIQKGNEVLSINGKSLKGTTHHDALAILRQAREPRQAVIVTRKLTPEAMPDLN

IL16_4, Q14005 = biological target: IL16_4, Q14005
Chain of IL16_4, Q14005 (Q14005 1229-1329): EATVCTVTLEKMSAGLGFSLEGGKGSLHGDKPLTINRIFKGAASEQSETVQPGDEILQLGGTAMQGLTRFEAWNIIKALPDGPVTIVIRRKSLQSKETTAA

Inadl_9, Q8NI35 = biological target: Inadl_9, Q8NI35
Chain of Inadl_9, Q8NI35 (Q8NI35 1530-1615): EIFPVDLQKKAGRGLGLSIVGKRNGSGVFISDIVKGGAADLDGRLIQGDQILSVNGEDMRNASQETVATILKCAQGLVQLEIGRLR

LDB3, O75112 = biological target: LDB3, O75112
Chain of LDB3, O75112 (O75112 1-94): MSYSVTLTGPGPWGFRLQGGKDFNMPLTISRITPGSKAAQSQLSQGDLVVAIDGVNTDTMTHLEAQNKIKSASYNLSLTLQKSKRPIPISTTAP

LIMK2, P53671 = biological target: LIMK2, P53671
Chain of LIMK2, P53671 (P53671 143-248): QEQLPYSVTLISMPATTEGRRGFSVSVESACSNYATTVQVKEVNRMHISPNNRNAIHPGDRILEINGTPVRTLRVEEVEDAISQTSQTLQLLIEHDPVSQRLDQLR

LIN7A, O14910 = biological target: T5, LIN7A, O14910
T5 sequence (O14910 103-200, limits assumed, looked up): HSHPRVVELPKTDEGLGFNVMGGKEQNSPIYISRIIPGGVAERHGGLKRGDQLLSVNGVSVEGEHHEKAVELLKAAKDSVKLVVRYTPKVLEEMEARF

LNX1_1, Q8TBB1 = biological target: LNX1_1, Q8TBB1
Chain of LNX1_1, Q8TBB1 (Q8TBB1 261-371): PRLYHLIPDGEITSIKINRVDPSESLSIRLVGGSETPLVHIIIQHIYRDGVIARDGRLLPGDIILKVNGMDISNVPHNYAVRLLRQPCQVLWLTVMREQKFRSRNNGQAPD

LNX1_3, Q8TBB1 = biological target: LNX1_3, Q8TBB1
Chain of LNX1_3, Q8TBB1 (Q8TBB1 500-596): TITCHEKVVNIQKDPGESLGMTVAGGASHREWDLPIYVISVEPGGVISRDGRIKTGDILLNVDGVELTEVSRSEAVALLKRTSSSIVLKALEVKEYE

MAGI1_1, Q96QZ7 = biological target: MAGI1_1, Q96QZ7
Chain of MAGI1_1, Q96QZ7 (Q96QZ7 1-106): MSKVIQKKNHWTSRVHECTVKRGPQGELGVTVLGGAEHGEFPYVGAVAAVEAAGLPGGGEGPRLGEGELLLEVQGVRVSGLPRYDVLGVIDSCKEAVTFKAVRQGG

MAGI1_2, Q96QZ7 = biological target: MAGI1_2, Q96QZ7
Chain of MAGI1_2, Q96QZ7 (Q96QZ7 456-580): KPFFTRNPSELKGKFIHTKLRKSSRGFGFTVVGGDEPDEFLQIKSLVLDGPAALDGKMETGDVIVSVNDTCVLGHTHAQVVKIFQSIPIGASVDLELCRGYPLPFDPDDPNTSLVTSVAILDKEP

MAST1, Q9Y2H9 = biological target: MAST1, Q9Y2H9
Chain of MAST1, Q9Y2H9 (Q9Y2H9 962-1065): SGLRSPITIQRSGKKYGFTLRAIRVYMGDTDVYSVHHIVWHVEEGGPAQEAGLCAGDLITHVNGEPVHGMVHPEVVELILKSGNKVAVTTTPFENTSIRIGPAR

MPP6, Q9NZW5 = biological target: T6, MPP6, Q9NZW5
T6 sequence (Q9NZW5 125-219, limits assumed, looked up): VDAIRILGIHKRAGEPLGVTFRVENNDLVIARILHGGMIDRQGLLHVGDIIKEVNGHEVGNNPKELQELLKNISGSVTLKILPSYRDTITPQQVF

MPP7, Q5T2T1 = biological target: T7, MPP7, Q5T2T1
T7 sequence (Q5T2T1 134-230, limits assumed, looked up): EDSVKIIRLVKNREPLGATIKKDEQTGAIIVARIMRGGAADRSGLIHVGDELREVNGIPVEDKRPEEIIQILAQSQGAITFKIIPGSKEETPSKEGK

NHERF4_4, Q86UT5 = biological target: NHERF4_4, Q86UT5
Chain of NHERF4_4, Q86UT5 (Q86UT5 464-550): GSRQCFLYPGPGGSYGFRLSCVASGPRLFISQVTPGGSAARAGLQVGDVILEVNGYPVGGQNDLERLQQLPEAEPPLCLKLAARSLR

PDZRN4_1, Q6ZMN7 = biological target: PDZRN4_1, Q6ZMN7
Chain of PDZRN4_1, Q6ZMN7 (Q6ZMN7 213-318): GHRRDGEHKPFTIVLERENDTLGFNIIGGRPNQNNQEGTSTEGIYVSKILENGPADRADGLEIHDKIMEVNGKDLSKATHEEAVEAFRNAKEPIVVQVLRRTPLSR

RAPGEF6, Q8TEU7 = biological target: T8, RAPGEF6, Q8TEU7
T8 sequence (Q8TEU7 525-625, limits assumed, looked up): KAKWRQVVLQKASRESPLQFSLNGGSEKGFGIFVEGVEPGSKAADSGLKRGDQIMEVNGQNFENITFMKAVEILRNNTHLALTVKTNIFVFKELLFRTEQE

SNTG1, Q9NSN8 = biological target: T9, SNTG1, Q9NSN8
T9 sequence (Q9NSN8 52-150, limits assumed, looked up): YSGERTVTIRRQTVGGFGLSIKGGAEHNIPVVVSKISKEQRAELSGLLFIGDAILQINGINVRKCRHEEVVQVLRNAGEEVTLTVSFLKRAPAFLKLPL

- pKd (AHNAK1, Q09666): below the threshold
- pKd (CARD11, Q9BXL7): below the threshold
- pKd (DLG1_2, Q12959): below the threshold
- pKd (DLG3_2, Q92796): 3.53
- pKd (FRMPD1, Q5SYB0): below the threshold
- pKd (FRMPD2_3, Q68DX3): below the threshold
- pKd (GRIP1_4, Q9Y3R0): below the threshold
- pKd (GRIP2_4, Q9C0E4): below the threshold
- pKd (GRIP2_5, Q9C0E4): below the threshold
- pKd (GRIP2_6, Q9C0E4): below the threshold
- pKd (HTRA1, Q92743): 3.59
- pKd (HTRA2, O43464): below the threshold
- pKd (IL16_3, Q14005): below the threshold
- pKd (IL16_4, Q14005): 3.72
- pKd (Inadl_9, Q8NI35): below the threshold
- pKd (LDB3, O75112): below the threshold
- pKd (LIMK2, P53671): below the threshold
- pKd (LIN7A, O14910): below the threshold
- pKd (LNX1_1, Q8TBB1): 3.58
- pKd (LNX1_3, Q8TBB1): below the threshold
- pKd (MAGI1_1, Q96QZ7): below the threshold
- pKd (MAGI1_2, Q96QZ7): below the threshold
- pKd (MAST1, Q9Y2H9): 3.98
- pKd (MPP6, Q9NZW5): below the threshold
- pKd (MPP7, Q5T2T1): below the threshold
- pKd (NHERF4_4, Q86UT5): below the threshold
- pKd (PDZRN4_1, Q6ZMN7): 3.52
- pKd (RAPGEF6, Q8TEU7): below the threshold
- pKd (SNTG1, Q9NSN8): 3.55
B1: ERBB2, P04626 (peptide)
chain: PEYLGLDVPV

- pKd (AHNAK1, Q09666): below the threshold
- pKd (CARD11, Q9BXL7): below the threshold
- pKd (DLG1_2, Q12959): 5.44
- pKd (DLG3_2, Q92796): 5.25
- pKd (FRMPD1, Q5SYB0): below the threshold
- pKd (FRMPD2_3, Q68DX3): below the threshold
- pKd (GRIP1_4, Q9Y3R0): below the threshold
- pKd (GRIP2_4, Q9C0E4): below the threshold
- pKd (GRIP2_5, Q9C0E4): below the threshold
- pKd (GRIP2_6, Q9C0E4): below the threshold
- pKd (HTRA1, Q92743): below the threshold
- pKd (HTRA2, O43464): below the threshold
- pKd (IL16_3, Q14005): below the threshold
- pKd (IL16_4, Q14005): below the threshold
- pKd (Inadl_9, Q8NI35): below the threshold
- pKd (LDB3, O75112): below the threshold
- pKd (LIMK2, P53671): below the threshold
- pKd (LIN7A, O14910): below the threshold
- pKd (LNX1_1, Q8TBB1): 4.04
- pKd (LNX1_3, Q8TBB1): below the threshold
- pKd (MAGI1_1, Q96QZ7): below the threshold
- pKd (MAGI1_2, Q96QZ7): below the threshold
- pKd (MAST1, Q9Y2H9): below the threshold
- pKd (MPP6, Q9NZW5): below the threshold
- pKd (MPP7, Q5T2T1): below the threshold
- pKd (NHERF4_4, Q86UT5): below the threshold
- pKd (PDZRN4_1, Q6ZMN7): below the threshold
- pKd (RAPGEF6, Q8TEU7): below the threshold
- pKd (SNTG1, Q9NSN8): 4.89
B2: GRIN2A, Q12879 (peptide)
chain: KKMPSIESDV

- pKd (AHNAK1, Q09666): below the threshold
- pKd (CARD11, Q9BXL7): below the threshold
- pKd (DLG1_2, Q12959): 5.52
- pKd (DLG3_2, Q92796): 5.33
- pKd (FRMPD1, Q5SYB0): below the threshold
- pKd (FRMPD2_3, Q68DX3): below the threshold
- pKd (GRIP1_4, Q9Y3R0): below the threshold
- pKd (GRIP2_4, Q9C0E4): below the threshold
- pKd (GRIP2_5, Q9C0E4): below the threshold
- pKd (GRIP2_6, Q9C0E4): below the threshold
- pKd (HTRA1, Q92743): 4.5
- pKd (HTRA2, O43464): below the threshold
- pKd (IL16_3, Q14005): below the threshold
- pKd (IL16_4, Q14005): 3.51
- pKd (Inadl_9, Q8NI35): below the threshold
- pKd (LDB3, O75112): below the threshold
- pKd (LIMK2, P53671): below the threshold
- pKd (LIN7A, O14910): below the threshold
- pKd (LNX1_1, Q8TBB1): 4.34
- pKd (LNX1_3, Q8TBB1): below the threshold
- pKd (MAGI1_1, Q96QZ7): below the threshold
- pKd (MAGI1_2, Q96QZ7): 4.82
- pKd (MAST1, Q9Y2H9): 4.28
- pKd (MPP6, Q9NZW5): below the threshold
- pKd (MPP7, Q5T2T1): below the threshold
- pKd (NHERF4_4, Q86UT5): below the threshold
- pKd (PDZRN4_1, Q6ZMN7): below the threshold
- pKd (RAPGEF6, Q8TEU7): below the threshold
- pKd (SNTG1, Q9NSN8): below the threshold
B3: IQSEC2, Q5JU85 (peptide)
chain: AKPSRISTVV

- pKd (AHNAK1, Q09666): below the threshold
- pKd (CARD11, Q9BXL7): below the threshold
- pKd (DLG1_2, Q12959): below the threshold
- pKd (DLG3_2, Q92796): 3.61
- pKd (FRMPD1, Q5SYB0): below the threshold
- pKd (FRMPD2_3, Q68DX3): below the threshold
- pKd (GRIP1_4, Q9Y3R0): below the threshold
- pKd (GRIP2_4, Q9C0E4): below the threshold
- pKd (GRIP2_5, Q9C0E4): below the threshold
- pKd (GRIP2_6, Q9C0E4): below the threshold
- pKd (HTRA1, Q92743): 4.7
- pKd (HTRA2, O43464): below the threshold
- pKd (IL16_3, Q14005): below the threshold
- pKd (IL16_4, Q14005): below the threshold
- pKd (Inadl_9, Q8NI35): 3.58
- pKd (LDB3, O75112): below the threshold
- pKd (LIMK2, P53671): below the threshold
- pKd (LIN7A, O14910): below the threshold
- pKd (LNX1_1, Q8TBB1): below the threshold
- pKd (LNX1_3, Q8TBB1): below the threshold
- pKd (MAGI1_1, Q96QZ7): below the threshold
- pKd (MAGI1_2, Q96QZ7): below the threshold
- pKd (MAST1, Q9Y2H9): 4.71
- pKd (MPP6, Q9NZW5): below the threshold
- pKd (MPP7, Q5T2T1): below the threshold
- pKd (NHERF4_4, Q86UT5): below the threshold
- pKd (PDZRN4_1, Q6ZMN7): 3.8
- pKd (RAPGEF6, Q8TEU7): below the threshold
- pKd (SNTG1, Q9NSN8): below the threshold
B4: TBC1D10A, Q9BXI6 (peptide)
chain: TSQESEDTYL

- pKd (AHNAK1, Q09666): below the threshold
- pKd (CARD11, Q9BXL7): below the threshold
- pKd (DLG1_2, Q12959): 4.46
- pKd (DLG3_2, Q92796): 4.38
- pKd (FRMPD1, Q5SYB0): below the threshold
- pKd (FRMPD2_3, Q68DX3): below the threshold
- pKd (GRIP1_4, Q9Y3R0): below the threshold
- pKd (GRIP2_4, Q9C0E4): below the threshold
- pKd (GRIP2_5, Q9C0E4): below the threshold
- pKd (GRIP2_6, Q9C0E4): below the threshold
- pKd (HTRA1, Q92743): below the threshold
- pKd (HTRA2, O43464): below the threshold
- pKd (IL16_3, Q14005): below the threshold
- pKd (IL16_4, Q14005): below the threshold
- pKd (Inadl_9, Q8NI35): below the threshold
- pKd (LDB3, O75112): below the threshold
- pKd (LIMK2, P53671): below the threshold
- pKd (LIN7A, O14910): below the threshold
- pKd (LNX1_1, Q8TBB1): 4.5
- pKd (LNX1_3, Q8TBB1): below the threshold
- pKd (MAGI1_1, Q96QZ7): below the threshold
- pKd (MAGI1_2, Q96QZ7): below the threshold
- pKd (MAST1, Q9Y2H9): 4.31
- pKd (MPP6, Q9NZW5): below the threshold
- pKd (MPP7, Q5T2T1): below the threshold
- pKd (NHERF4_4, Q86UT5): below the threshold
- pKd (PDZRN4_1, Q6ZMN7): below the threshold
- pKd (RAPGEF6, Q8TEU7): below the threshold
- pKd (SNTG1, Q9NSN8): 4.88
B5: PLEKHA2, Q9HB19 (peptide)
chain: DDENIRTSDV
